# Tests used:
# Assay in all cases: cell-based or functional assay
# [1] = target: HIV-1 Env of isolate MGRM-C-026 (HIV-1)
# [2] = target: HIV-1 Env of isolate 94UG103 (HIV-1)
# [3] = target: HIV-1 Env of isolate MG RM-D-003 (subtype D) (HIV-1)
# [4] = target: HIV-1 Env of isolate 98CN006 (subtype CRF08 BC) (HIV-1)
# [5] = target: HIV-1 Env of isolate MGRM-C-007 (pseudovirus) (HIV-1 isolate MGRM-C-007, subtype C)
# [6] = target: HIV-1 Env of isolate MGRM-C-026 (pseudovirus) (HIV-1 isolate MGRM-C-026, subtype C)
# [7] = target: HIV-1 Env of isolate MGRM-F1-018 (HIV-1)
# [8] = target: HIV-1 Env of isolate MGRM-F1-006 (subtype F) (HIV-1)
# [9] = target: HIV-1 Env of isolate MGRM-C-015 (pseudovirus) (HIV-1 isolate MGRM-C-015, subtype C)
# [10] = target: HIV-1 Env of isolate MGRM-F1-023 (HIV-1)
# [11] = target: HIV-1 Env of isolate MGRM-C-017 (HIV-1)
# [12] = target: HIV-1 Env of isolate MGRM-AE-007 (CRF01_AE), on pseudovirus (HIV-1)
# [13] = target: HIV-1 Env of isolate MGRM-A-010 (clade A), on pseudovirus (HIV-1)
# [14] = target: HIV-1 Env of isolate MGRM-D-014 (HIV-1)
# [15] = target: HIV-1 Env of isolate MGRM-D-028 (subtype D), on pseudovirus (HIV-1)
# [16] = target: HIV-1 Env of isolate MGRM-G-025 (HIV-1)
# [17] = target: HIV-1 Env of isolate MGRM-Chronic-B-003 (HIV-1)
# [18] = target: HIV-1 Env of isolate MGRM-D-021 (HIV-1)
# [19] = target: HIV-1 Env of isolate MGRM-D-029 (subtype D), on pseudovirus (HIV-1)
# [20] = target: HIV-1 Env of isolate MGRM-F1-017 (subtype F), on pseudovirus (HIV-1)
# [21] = target: HIV-1 Env of isolate MGRM-D-019 (HIV-1)
# [22] = target: HIV-1 Env of isolate MGRM-D-011 (HIV-1)
# [23] = target: HIV-1 Env of isolate APV-17 (pseudovirus) (HIV-1 isolate APV-17, subtype B)
# [24] = target: HIV-1 Env of isolate 98CN009 (HIV-1)
# [25] = target: HIV-1 Env of isolate MGRM-D-024 (subtype D), on pseudovirus (HIV-1)
# [26] = target: HIV-1 Env of isolate 93TH305 (pseudovirus) (HIV-1 isolate 93TH305, subtype B)
# [27] = target: HIV-1 JR-CSF Env D167A (HIV-1 (isolate JR-CSF)) (UniProt P20871)
# [28] = target: HIV-1 MGRM-C-027 envelope glycoprotein (Env) on pseudovirus (HIV-1)
# [29] = target: HIV-1 JR-CSF Env R166A (HIV-1 (isolate JR-CSF)) (UniProt P20871)
# Chain of 5329_C19 (PGT-136) (antibody) (VH): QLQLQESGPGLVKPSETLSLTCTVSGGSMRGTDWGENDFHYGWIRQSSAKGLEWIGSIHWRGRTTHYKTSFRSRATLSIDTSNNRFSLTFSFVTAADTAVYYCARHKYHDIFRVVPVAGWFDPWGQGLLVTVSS
# Chain of 5329_C19 (PGT-136) (antibody) (VL): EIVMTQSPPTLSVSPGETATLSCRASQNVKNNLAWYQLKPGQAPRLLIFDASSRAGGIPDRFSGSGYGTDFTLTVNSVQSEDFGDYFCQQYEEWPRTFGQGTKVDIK
# Chain of 5345_I01 (PGT-137) (antibody) (VH): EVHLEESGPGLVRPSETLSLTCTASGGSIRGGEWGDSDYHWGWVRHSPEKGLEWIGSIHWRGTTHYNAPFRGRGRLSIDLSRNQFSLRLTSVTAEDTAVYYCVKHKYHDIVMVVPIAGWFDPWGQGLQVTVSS
# Chain of 5345_I01 (PGT-137) (antibody) (VL): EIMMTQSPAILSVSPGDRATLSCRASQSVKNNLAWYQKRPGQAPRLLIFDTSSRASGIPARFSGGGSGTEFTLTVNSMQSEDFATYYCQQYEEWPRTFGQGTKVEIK
substance,measurement,setting,value
PGT-121 (antibody),Primary Neutralization Index (B cell culture well 4838 L06),[1],996
same,Primary Neutralization Index (B cell culture well 4873 E03),[1],371
same,"IC50 (µg/mL), pseudovirus neutralization",[2],2.52 µg/mL
same,Primary Neutralization Index (B cell culture well 4838 L06),[2],1.4
same,Primary Neutralization Index (B cell culture well 4873 E03),[2],0.8
4838_L06 (PGT-121) (antibody),"IC50 (µg/mL), pseudovirus neutralization",[3],10.7 µg/mL
same,"IC50 (µg/mL), pseudovirus neutralization",[4],0.01 µg/mL
same,IC50 (µg/mL) neutralization,[5],0.196 µg/mL
same,IC50 (µg/mL) neutralization,[6],0.002 µg/mL
same,IC50,[7],0.04 µg/mL
same,"IC50 (µg/mL), pseudovirus neutralization",[8],5.33 µg/mL
same,IC50 (µg/mL) neutralization,[9],25.1 µg/mL
same,IC50,[10],0.097 µg/mL
PGT-122 (antibody),"IC50 (µg/mL), pseudovirus neutralization",[2],2.04 µg/mL
5329_C19 (PGT-136) (antibody),IC50,[11],> 50 µg/mL
same,IC50,[1],0.006 µg/mL
same,"IC50, single-round pseudovirus neutralization",[12],> 50 µg/mL
same,"IC50, single-round pseudovirus neutralization",[13],> 50 µg/mL
same,IC50,[14],> 50 µg/mL
same,"IC50, pseudovirus neutralization",[15],> 50 µg/mL
same,"IC50, pseudovirus neutralization",[16],> 50 µg/mL
same,IC50,[17],> 50 µg/mL
same,IC50,[18],> 50 µg/mL
same,neutralization IC50,[2],> 50 µg/mL
same,"IC50, pseudovirus neutralization",[19],> 50 µg/mL
same,"IC50, pseudovirus neutralization",[20],> 50 µg/mL
same,IC50,[21],> 50 µg/mL
same,IC50,[22],> 50 µg/mL
same,IC50 (µg/mL) neutralization,[23],> 50 µg/mL
same,IC50,[24],0.428 µg/mL
same,"IC50, pseudovirus neutralization",[25],> 50 µg/mL
same,IC50 (µg/mL) neutralization,[26],20.2 µg/mL
5141_B17 (PGT-126) (antibody),"IC50 (µg/mL), pseudovirus neutralization",[3],0.021 µg/mL
same,Fold IC50 increase relative to wild-type,[27],1.6 fold
same,"IC50 (µg/mL), pseudovirus neutralization",[4],0.046 µg/mL
same,"IC50 (ug/ml), neutralizing activity",[28],1.14 µg/mL
same,IC50 (µg/mL) neutralization,[5],25.3 µg/mL
same,"IC50, pseudovirus neutralization",[16],17.1 µg/mL
same,IC50 (µg/mL) neutralization,[6],0.007 µg/mL
same,IC50,[7],14.9 µg/mL
same,"IC50 (µg/mL), pseudovirus neutralization",[8],0.078 µg/mL
same,Fold IC50 increase relative to wild-type,[29],1 fold
same,IC50 (µg/mL) neutralization,[9],3.14 µg/mL
same,IC50,[10],0.009 µg/mL
5345_I01 (PGT-137) (antibody),IC50,[11],> 50 µg/mL
same,IC50,[1],0.011 µg/mL
same,"IC50, single-round pseudovirus neutralization",[12],> 50 µg/mL
same,"IC50, single-round pseudovirus neutralization",[13],> 50 µg/mL
same,IC50,[14],> 50 µg/mL
same,"IC50, pseudovirus neutralization",[15],> 50 µg/mL
same,"IC50, pseudovirus neutralization",[16],> 50 µg/mL
same,IC50,[17],> 50 µg/mL
same,IC50,[18],> 50 µg/mL
same,neutralization IC50,[2],> 50 µg/mL
same,"IC50, pseudovirus neutralization",[19],> 50 µg/mL
same,"IC50, pseudovirus neutralization",[20],> 50 µg/mL
same,IC50,[21],> 50 µg/mL
same,IC50,[22],6.3 µg/mL
same,IC50 (µg/mL) neutralization,[23],> 50 µg/mL
same,IC50,[24],5.06 µg/mL
same,"IC50, pseudovirus neutralization",[25],> 50 µg/mL
same,IC50 (µg/mL) neutralization,[26],> 50 µg/mL
4877_D15 (PGT-122) (antibody),"IC50 (µg/mL), pseudovirus neutralization",[3],> 50 µg/mL
same,"IC50 (µg/mL), pseudovirus neutralization",[4],0.021 µg/mL
same,"IC50 (ug/ml), neutralizing activity",[28],0.0388 µg/mL
same,IC50 (µg/mL) neutralization,[5],3.35 µg/mL
same,"IC50, pseudovirus neutralization",[16],0.079 µg/mL
same,IC50 (µg/mL) neutralization,[6],0.006 µg/mL
same,IC50,[7],0.563 µg/mL
same,"IC50 (µg/mL), pseudovirus neutralization",[8],3.27 µg/mL
same,IC50 (µg/mL) neutralization,[9],> 50 µg/mL
same,IC50,[10],0.154 µg/mL
5123_A06 (PGT-125) (antibody),"IC50 (µg/mL), pseudovirus neutralization",[3],0.065 µg/mL
same,Fold IC50 increase relative to wild-type,[27],1.7 fold
same,"IC50 (µg/mL), pseudovirus neutralization",[4],0.201 µg/mL
same,"IC50 (ug/ml), neutralizing activity",[28],> 10 µg/mL
same,neutralization IC50,[28],> 10 µg/mL
same,neutralization IC80,[28],> 10 µg/mL
same,neutralization IC90,[28],> 10 µg/mL
same,neutralization IC95,[28],> 10 µg/mL
same,IC50 (µg/mL) neutralization,[5],> 50 µg/mL
same,"IC50, pseudovirus neutralization",[16],> 50 µg/mL
same,IC50 (µg/mL) neutralization,[6],0.005 µg/mL
same,IC50,[7],> 50 µg/mL
same,"IC50 (µg/mL), pseudovirus neutralization",[8],0.035 µg/mL
same,Fold IC50 increase relative to wild-type,[29],1.5 fold
same,IC50 (µg/mL) neutralization,[9],> 50 µg/mL
same,IC50,[10],0.12 µg/mL

# Reference: US20200024330A1
